Numbering of substitutions follows the chain as printed. Numbers in names are those of the source.
Key:
[1] = molecular target: T1, IPDOKF1 (isophthalate dioxygenase, IPDO) (Comamonas testosteroni, UniProt B7WRK8); assay: X-ray co-crystal structure, […] Å; format: binding; conditions: co-crystallized with 5 mM isophthalate, 0.1 M Tris-HCl pH 7.0; active site near mononuclear iron
T1 construct: gene CtesDRAFT_PD2139; 424 residues per protomer; ~50 kDa monomer, ~150 kDa trimer; primers encode N-terminus MNKEMSE and C-terminus PVFSL; Rieske [2Fe-2S]; C69/H71/C88/H91, Fe H177/H182/D337; assayed with separate reductase IPDRKF1
T1 sequence (B7WRK8 1-424): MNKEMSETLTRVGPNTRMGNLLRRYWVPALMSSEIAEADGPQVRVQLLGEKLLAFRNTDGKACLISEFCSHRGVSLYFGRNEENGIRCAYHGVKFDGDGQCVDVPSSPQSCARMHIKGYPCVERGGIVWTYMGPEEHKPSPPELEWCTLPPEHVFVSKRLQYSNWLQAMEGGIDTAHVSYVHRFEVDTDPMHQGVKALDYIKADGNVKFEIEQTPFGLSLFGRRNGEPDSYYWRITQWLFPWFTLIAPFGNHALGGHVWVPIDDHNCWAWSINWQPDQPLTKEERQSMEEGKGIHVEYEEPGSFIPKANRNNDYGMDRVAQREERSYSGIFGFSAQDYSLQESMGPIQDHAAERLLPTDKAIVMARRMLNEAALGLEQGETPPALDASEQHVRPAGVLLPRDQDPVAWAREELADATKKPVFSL

[2] = molecular target: isophthalate dioxygenase from Comamonas testosteroni KF1 (IPDOKF1) (Comamonas testosteroni KF1); assay: SEC; gel filtration on a Superdex 200 column; peaks at 62 mL (trimer, ~150 kDa) and 73 mL (monomer, ~50 kDa)
[3] = molecular target: isophthalate dioxygenase from Comamonas testosteroni KF1 (IPDOKF1) (Comamonas testosteroni KF1); assay: crystal structure; apo IPDOKF1 at 2.96 Å and isophthalate complex at 3.3 Å, space group P 2_(1) 3, one monomer per asymmetric unit; the trimer arises by the threefold axis
purified protein = substrate: O=C(O)c1cccc(C(=O)O)c1; assay: purified protein; conditions: with reductase IPDRKF1, 1 mM NAD(P)H, 100 µM Fe(NH4)2(SO4)2, air-saturated 50 mM Tris, 25 °C, pH 7.5 in table footnote but pH 8.0 in methods
[4] = substrate: O=C(O)c1ccccc1C(=O)O; assay: O2 consumption, Clark-type oxygen electrode; format: biochemical, Comamonas testosteroni; conditions: with reductase IPDRKF1, 1 mM NAD(P)H, 100 µM Fe(NH4)2(SO4)2, air-saturated 50 mM Tris, 25 °C, pH 7.5 in table footnote but pH 8.0 in methods
[5] = substrate: O=C(O)c1ccc(C(=O)O)cc1; assay: O2 consumption, Clark-type oxygen electrode; format: biochemical, Comamonas testosteroni; conditions: with reductase IPDRKF1, 1 mM NAD(P)H, 100 µM Fe(NH4)2(SO4)2, air-saturated 50 mM Tris, 25 °C, pH 7.5 in table footnote but pH 8.0 in methods

O=C(O)c1cccc(C(=O)O)c1 [IPA, isophthalate]
X-ray co-crystal structure, 3.3 Å [1]: co-crystallized IPDOKF1 with its substrate and determined the structure of the isophthalate-bound complex

isophthalate dioxygenase from Comamonas testosteroni KF1 (IPDOKF1) (enzyme)
stoichiometry N [2]: 3 | stoichiometry N [3]: 3

B1: IPDOKF1 (isophthalate dioxygenase, IPDO) (Comamonas testosteroni KF-1) (protein)
chain: T1 sequence (B7WRK8 1-424)
Km (purified protein): 31 ± 7 µM | kcat (purified protein): 4.9 s⁻¹ | kcat/Km (purified protein): 160000 M⁻¹ s⁻¹

B2: IPDOKF1 (isophthalate dioxygenase, IPDO) (Comamonas testosteroni KF-1; F249H/V178A) (protein)
chain: T1 sequence (B7WRK8 1-424) with V178A, F249H
notes: 424 residues per protomer; ~50 kDa monomer, ~150 kDa trimer; primers encode N-terminus MNKEMSE and C-terminus PVFSL; Rieske [2Fe-2S]; C69/H71/C88/H91, Fe H177/H182/D337; assayed with separate reductase IPDRKF1
Km [4]: 91 ± 16 µM | kcat [4]: 4 ± 0.2 s⁻¹ | kcat/Km [4]: 44000 ± 8000 M⁻¹ s⁻¹ | Km [5]: 95 ± 11 µM | kcat [5]: 4.9 ± 0.2 s⁻¹ | kcat/Km [5]: 51000 ± 6000 M⁻¹ s⁻¹ | Km (purified protein): 32 ± 8 µM | kcat (purified protein): 4.8 s⁻¹ | kcat/Km (purified protein): 148000 M⁻¹ s⁻¹
